Measured values as given in IntAct's records for PubMed 35512704.

B1: Mothers against decapentaplegic homolog 4 (Homo sapiens), Q13485 (parent)
chain: MDNMSITNTPTSNDACLSIVHSLMCHRQGGESETFAKRAIESLVKKLKEKKDELDSLITAITTNGAHPSKCVTIQRTLDGRLQVAGRKGFPHVIYARLWRWPDLHKNELKHVKYCQYAFDLKCDSVCVNPYHYERVVSPGIDLSGLTLQSNAPSSMMVKDEYVHDFEGQPSLSTEGHSIQTIQHPPSNRASTETYSTPALLAPSESNATSTANFPNIPVASTSQPASILGGSHSEGLLQIASGPQPGQQQNGFTGQPATYHHNSTTTWTGSRTAPYTPNLPHHQNGHLQHHPPMPPHPGHYWPVHNELAFQPPISNHPAPEYWCSIAYFEMDVQVGETFKVPSSCPIVTVDGYVDPSGGDRFCLGQLSNVHRTEAIERARLHIGKGVQLECKGEGDVWVRCLSDHAVFVQSYYLDREAGRAPGDAVHKIYPSAYIKVFDLRQCHRQMQQQAATAQAAAAAQAAAVAGNIPGPGSVGGIAPAISLSAAAGIGVDDLRRLCILRMSFVKGWGPDYPRQSIKETPCWIEIHLHRALQLLDEVLHTMPIADPQPLD
partner: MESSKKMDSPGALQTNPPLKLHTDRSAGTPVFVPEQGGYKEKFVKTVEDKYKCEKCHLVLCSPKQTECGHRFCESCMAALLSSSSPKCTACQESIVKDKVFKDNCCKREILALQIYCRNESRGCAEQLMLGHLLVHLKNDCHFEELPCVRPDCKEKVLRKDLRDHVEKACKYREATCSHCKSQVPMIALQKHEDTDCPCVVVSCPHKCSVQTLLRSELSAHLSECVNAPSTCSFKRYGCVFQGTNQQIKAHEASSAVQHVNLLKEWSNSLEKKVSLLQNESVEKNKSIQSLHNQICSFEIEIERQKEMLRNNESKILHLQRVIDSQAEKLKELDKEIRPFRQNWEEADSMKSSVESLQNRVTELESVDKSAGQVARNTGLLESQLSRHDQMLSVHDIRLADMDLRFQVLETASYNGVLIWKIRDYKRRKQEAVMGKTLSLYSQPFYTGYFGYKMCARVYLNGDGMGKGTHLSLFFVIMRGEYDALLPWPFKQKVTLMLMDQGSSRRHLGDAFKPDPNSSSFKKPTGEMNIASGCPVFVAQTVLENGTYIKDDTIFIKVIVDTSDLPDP
B2: Mothers against decapentaplegic homolog 4 (Homo sapiens), Q13485 (parent)
chain: B1 chain
partner: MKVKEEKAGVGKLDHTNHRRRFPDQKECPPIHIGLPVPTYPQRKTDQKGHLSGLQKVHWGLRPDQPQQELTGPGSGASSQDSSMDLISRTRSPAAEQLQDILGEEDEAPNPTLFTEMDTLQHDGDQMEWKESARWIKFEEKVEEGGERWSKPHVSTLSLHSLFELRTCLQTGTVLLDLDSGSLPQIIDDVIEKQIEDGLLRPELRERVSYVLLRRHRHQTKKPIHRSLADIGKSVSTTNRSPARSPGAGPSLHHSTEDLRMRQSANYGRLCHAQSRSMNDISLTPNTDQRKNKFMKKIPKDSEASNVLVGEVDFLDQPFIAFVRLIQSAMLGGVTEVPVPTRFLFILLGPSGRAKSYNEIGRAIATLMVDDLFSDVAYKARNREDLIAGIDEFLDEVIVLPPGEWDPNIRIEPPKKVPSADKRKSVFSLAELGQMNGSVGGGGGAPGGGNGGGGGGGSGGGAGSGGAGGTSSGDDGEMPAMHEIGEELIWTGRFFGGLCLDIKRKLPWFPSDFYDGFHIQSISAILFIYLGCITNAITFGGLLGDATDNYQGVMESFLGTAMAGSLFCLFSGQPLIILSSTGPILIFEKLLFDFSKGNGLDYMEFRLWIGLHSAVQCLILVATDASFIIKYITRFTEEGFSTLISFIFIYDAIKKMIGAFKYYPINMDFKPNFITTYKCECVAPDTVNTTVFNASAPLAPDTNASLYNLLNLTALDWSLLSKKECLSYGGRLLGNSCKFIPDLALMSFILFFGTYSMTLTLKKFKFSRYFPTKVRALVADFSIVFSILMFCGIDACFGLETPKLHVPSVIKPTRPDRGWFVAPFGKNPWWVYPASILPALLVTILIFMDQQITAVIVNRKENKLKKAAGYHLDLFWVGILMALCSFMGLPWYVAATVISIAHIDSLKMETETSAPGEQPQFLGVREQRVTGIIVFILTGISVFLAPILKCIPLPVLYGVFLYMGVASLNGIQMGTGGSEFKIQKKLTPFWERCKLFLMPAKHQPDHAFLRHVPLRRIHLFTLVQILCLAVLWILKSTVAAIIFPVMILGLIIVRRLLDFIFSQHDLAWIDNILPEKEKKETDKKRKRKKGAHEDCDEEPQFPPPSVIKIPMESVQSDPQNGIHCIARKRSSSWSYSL
B3: Mothers against decapentaplegic homolog 4 (Homo sapiens), Q13485 (parent)
chain: B1 chain
partner: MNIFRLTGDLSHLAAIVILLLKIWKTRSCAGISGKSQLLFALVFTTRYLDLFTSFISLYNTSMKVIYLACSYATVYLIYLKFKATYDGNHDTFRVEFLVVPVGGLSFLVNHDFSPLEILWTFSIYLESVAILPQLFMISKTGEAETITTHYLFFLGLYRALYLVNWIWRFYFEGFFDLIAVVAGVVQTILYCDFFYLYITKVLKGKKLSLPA
B4: Mothers against decapentaplegic homolog 4 (Homo sapiens), Q13485 (parent)
chain: B1 chain
partner: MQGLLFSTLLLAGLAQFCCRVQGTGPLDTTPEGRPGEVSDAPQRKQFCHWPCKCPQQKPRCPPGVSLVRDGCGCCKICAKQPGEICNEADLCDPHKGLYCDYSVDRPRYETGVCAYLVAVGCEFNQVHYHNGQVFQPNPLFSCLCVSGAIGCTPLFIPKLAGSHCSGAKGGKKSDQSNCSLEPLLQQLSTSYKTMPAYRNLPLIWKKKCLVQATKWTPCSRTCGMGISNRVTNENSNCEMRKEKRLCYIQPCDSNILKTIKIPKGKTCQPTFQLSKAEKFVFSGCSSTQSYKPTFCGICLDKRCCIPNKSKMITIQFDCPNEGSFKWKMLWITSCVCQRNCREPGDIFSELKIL
B5: Mothers against decapentaplegic homolog 4 (Homo sapiens), Q13485 (parent)
chain: B1 chain
partner: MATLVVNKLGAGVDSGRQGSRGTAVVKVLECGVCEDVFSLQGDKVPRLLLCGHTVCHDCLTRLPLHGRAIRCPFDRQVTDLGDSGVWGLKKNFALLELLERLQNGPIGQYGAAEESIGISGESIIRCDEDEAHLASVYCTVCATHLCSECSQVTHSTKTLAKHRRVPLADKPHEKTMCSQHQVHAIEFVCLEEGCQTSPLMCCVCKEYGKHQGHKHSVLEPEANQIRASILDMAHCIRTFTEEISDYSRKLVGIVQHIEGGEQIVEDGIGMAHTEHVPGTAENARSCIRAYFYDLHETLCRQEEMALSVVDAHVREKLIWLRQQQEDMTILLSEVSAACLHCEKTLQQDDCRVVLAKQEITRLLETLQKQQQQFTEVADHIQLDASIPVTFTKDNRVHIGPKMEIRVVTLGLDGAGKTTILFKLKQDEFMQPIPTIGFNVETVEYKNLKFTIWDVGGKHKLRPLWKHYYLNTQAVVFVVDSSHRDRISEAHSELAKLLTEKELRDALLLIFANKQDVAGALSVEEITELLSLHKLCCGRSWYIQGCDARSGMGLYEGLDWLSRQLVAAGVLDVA

Variants of: B1
Settings: with traf3_human TRAF3, Q13114

effect of a mutation on the interaction | Variant
with no effect | R361H

Variants of: B1
Settings: with traf3_human TRAF3, Q13114
Remark: another data set of the same source

effect of a mutation on the interaction | Variant
with no effect | R361C

Variants of: B1
Settings: with traf3_human TRAF3, Q13114
Remark: another data set of the same source

effect of a mutation on the interaction | Variant
with no effect | G386D

Variants of: B2
Settings: with s4a5_human SLC4A5, Q9BY07

effect of a mutation on the interaction | Variant
with no effect | G386D

Variants of: B2
Settings: with s4a5_human SLC4A5, Q9BY07
Remark: another data set of the same source

effect of a mutation on the interaction | Variant
with no effect | R361C

Variants of: B3
Settings: with erd22_human KDELR2, P33947

effect of a mutation on the interaction | Variant
with no effect | G386D

Variants of: B3
Settings: with erd22_human KDELR2, P33947
Remark: another data set of the same source

effect of a mutation on the interaction | Variant
with no effect | R361H

Variants of: B3
Settings: with erd22_human KDELR2, P33947
Remark: another data set of the same source

effect of a mutation on the interaction | Variant
with no effect | R361C

Variants of: B4
Settings: with ccn6_human CCN6, O95389

effect of a mutation on the interaction | Variant
with no effect | D351H

Variants of: B4
Settings: with ccn6_human CCN6, O95389
Remark: another data set of the same source

effect of a mutation on the interaction | Variant
with no effect | G386D

Variants of: B4
Settings: with ccn6_human CCN6, O95389
Remark: another data set of the same source

effect of a mutation on the interaction | Variant
with no effect | R361C

Variants of: B4
Settings: with ccn6_human CCN6, O95389
Remark: another data set of the same source

effect of a mutation on the interaction | Variant
with no effect | R361H

Variants of: B5
Settings: with tri23_human TRIM23, P36406

effect of a mutation on the interaction | Variant
with no effect | G386D

Variants of: B5
Settings: with tri23_human TRIM23, P36406
Remark: another data set of the same source

effect of a mutation on the interaction | Variant
with no effect | D351H

Variants of: B5
Settings: with tri23_human TRIM23, P36406
Remark: another data set of the same source

effect of a mutation on the interaction | Variant
with no effect | R361H

Variants of: B5
Settings: with tri23_human TRIM23, P36406
Remark: another data set of the same source

effect of a mutation on the interaction | Variant
with no effect | R361C
